Experimental data taken from patent US20210324011A1 (University of Washington, published 2021).

B1: DHF36 (designed binder)
chain: MVEKNMLRLRLVKIVVENAKTKGDDTEEAREAAREAFEKVRVAAEVAGIDSSEVLELAIRLIKEVVLLALLEGYDISEAARAAAEAFVRVAVAAKIAGITSSEVLELAIRLIKEVVMNAMMEGYDISEAARAAAEAFKLVAEAAKRAGITSSETLKRAIEEIRKRVEEAQREGNNISVAALEAADEFRKKAEELKRRGLE
notes: vector pET28b; forms a homo-polymer
B2: DHF34 (designed binder)
chain: AEVILLVAVLLLAKAVEAVLMGNRVAFRLAAELALRVAKLLVIMAKVEGDPELVLEAAKVALVVASLAALNGDKEVFKKAAESALEVAKRLVEVASKEGDPELVLEAAKVALKVAELAAKNGDKEVFKKAAESALEVAKRLVEVASKEGDPELVEEAAKVAEEVRKLAKKQGDEEVYEKARETAREVKEELKRVREEKG
notes: vector pCDB24 (SUMO fusion); forms a homo-polymer
B3: DHF47 (designed binder)
chain: INLTIAILVAILVATMVELVAIRAQLEGNPELAASAMELRRAVEEAIEEAEKQGNPLLVLWVAVAAKVAAEVIKVAIQAEKEGNRDLFRAALELVRAVIEAIEEAVKQGNPELVEWVARAAKVAAEVIKVAIQAEKEGNRDLFRAALELVRAVIEAIEEAVKQGNPELVERVARLAKKAAELIKRAIRAEKEGNRDERREALERVREVIERIEELVRQGN
notes: as for B2
B4: DHF44 (designed binder)
chain: AVLALMVVNLLVQLAIELLSRAMLKGSAEDLEKALRTAEEAAREAKKVLEQAEKDGDPEVALLAVELVVVVATILLMIAKISGSEEALERALRVAEEAARLAKRVLELAEKQGDPEVALRAVELVVRVAELLLRIAKESGSEEALERALRVAEEAARLAKRVLELAEKQGDPEVARRAVELVKRVAELLERIARESGSEEAKERAERVREEARELQERVKELREREG
notes: as for B2
B5: DHF40 (designed binder)
chain: SSEKEELRERLVKICVELAKLKGDDTLKAAEAAEEAFRLVVLAAMLAGIDSSEVLELAIRLIKTCVVLAAMEGYDISEACRAAAEAFTRVAMAALRAGITSSLVLKAAIELIKECVLNAAVEGYDISEACRAAAEAFKRVAEAAKRAGITSLETLLRAIEEIRKRVEEAQREGNDISEACRQAAEEFRKKAEELKRRGDV
notes: as for B2
B6: DHF4 (designed binder)
chain: ADEELARILIEMAKTAAEAAQMAAEVTGDPRVRLLAVRLKMLALMAALEVILDPSSSDVNEALKLIVEAIEAAVKALLAAVRTGDPEVRELARELVRLAVEAAEEVQRNPSSSDVNEALKLIVEAIEAAVRALEAAERTGDPEVRELARELVRLAVEAAEEVQRNPSSEEVNEALKKIVKAIQEAVESLREAEESGDPEKREKARERVREAVERAEEVQRN
notes: as for B2
B7: DHF38 (designed binder)
chain: AEELLKRVEKLVKEAEELLRQAMKKGSEELLEVALVVAQMAAREAKKVLTMAEVEGDPEVALRAVELVVRVAELLLRIALVSGSEEALERALRVAEEAARLAKRVLELAESQGDPEVALRAVELVVRVAELLLLIAKVSGSEEALERALRVAEEAARLAKRVLELAEKQGDPAVAILAVMLVKRVAELLENIARESGSEEAKERAERVREEARELQERVKELKERAG
notes: vector pCDB24 (SUMO fusion, removed with SUMO protease); forms a homo-polymer; cryoEM PDB 6E9Y
B8: DHF46 (designed binder)
chain: MGHHHHHHSSGTKEERVLLMKVAILAIVAAKKGNTDEVRKALELALLIAKVSGTTEAVKLALEVVARVAIEAARRGNTDAVREALEVALEIARESGTTEAVKLALEVVARVAIEAARRGNTEAVVEALLVALEIAKESGTEEAVRLALEVVKRVSNEALKQGNVDAVKVALEVRKMIEELSG
notes: vector pET28b; forms a homo-polymer; cryoEM PDB 6E9R
B9: DHF31 (designed binder)
chain: AAIETLNVMTLVMLALLLLIQAISKGSAEDLEKALRTAEEAAREAKKVLEQAEKEGDPDQALKAVELVVVVAQLLLQIAIASGSREALERALRVAEEAARLAKRVLELAEKQGDPEVALRAVELVVRVAELLLRIAKESGSEEALERALRVAEEAARLAKRVLELAEKQGDPEVARRAVELVKRVAELLERIARESGSEEAKERAERVREEARELQERVKELREREG
notes: as for B2

Molecular target: the molecule itself
Experiment: negative stain EM; 1 = filaments observed (self-assembly)
Source text: The designs were expressed in Escherichia coli under the control of a T7 promoter and purified using immobilized metal affinity chromatography (IMAC). […] IMAC eluates were concentrated, and filament formation was monitored by negative stain electron microscopy (EM); insoluble designs were characterized by EM either directly in the initial insoluble fraction, or after solubilization in guanidine hydrochloride, IMAC, and subsequent removal of denaturant.
Negative Stain Electron Microscopy. Soluble fractions were concentrated and insoluble fractions were resuspended in buffer (25 mM Tris, 75 mM NaCl, pH 8) for EM screening. A drop of 6 μL (1 μl sample instantly diluted with 5 μl of buffer) was applied on negatively glow discharged, carbon-coated 200-mesh copper grids (Ted Pella, Inc.), washed with Milli-Q™ Water and stained using 0.75% uranyl formate as described previously (28). The screening was performed on either a 120 kV Tecnai Spirit™ T12 transmission electron microscope (FEI, Hillsboro, Oreg.) or a 100 kV Morgagni M268 transmission electron microscope (FEI, Hillsboro, Oreg.). Images were recorded on a bottom mount Teitz CMOS™ 4 k camera system. The contrast of the images was enhanced in the Fiji software (29) for clarity.

| Protein | binding result |
| --- | --- |
| B1 | binds |
| B2 | binds |
| B3 | binds |
| B4 | binds |
| B5 | binds |
| B6 | binds |
| B7 | binds |
| B8 | binds |
| B9 | binds |
